Reference: a protein production outcome set (Wang et al. 2014)

Assay: label from the status in PepcDB records

Sequence | protein production
SLERSVNGKIQKADIFSVPVSFNASEVKHVDTPQEALAASLNKFGEVNLEYMENLSEIDIQELLKQLDTRIFYNPMMKNYEIKDRFIAGNVVAKAEWIENYLKDYPDDDASRKSLEALRKAIPEPISFELLDFNLGERWIPMSVYEEFAGYLFETKAHIHYTESIDEFSVNFESTNANITDRYYVKGEKRGYYGNDLLKHALHNTVPDITKTVQDEEGNDIKVRDAEAIQLADAKINEIRSAFTGWLNEQLPEFKQNLADMYNRKFNCYVRPDYDGSLQSFPFLDLKGLGIPNLYDSQ | failed
MLKSKRKEIILSRLEQNKSVTLDELTSILETSESTVRRDLDELESAGFLKRVHGGAELPYSLGQELSNQEKAIKNVQKKLDIARQTAKLIAKQDVIFIDAGTTTELLIDFLPHEQLTVVTNSIHHAAKLVDRGIKTIIIGGAVKHSTDASIGQVAINQIRQITVDKAFLGMNGIDEVYLTTPDLEEAAIKEAIINNSQQTFILMDSSKIGQVTFAKVKEINDINLVTNKTDSELMTIIKEKMKVIQV | failed
MKRNNKSAIALIALSLLALSSGAAFAGHHWGNNDGMWQQGGSPLTTEQQATAQKIYDDYYTQTSALRQQLISKRYEYNALLTASSPDTAKINAVAKEMESLGQKLDEQRVKRDVAMAQAGIPRGAGMGYGGCGGYGGGYHRGGGHMGMGNW | not failed
MISNNTRRVYRISFSFFEQYCLEHNLQSLPADPRSIISFIGHQKELLQASTGMQLSKQTLTTRIAAIRFYHIQAGFPTPTEHPQVIRVMRGLSRNHHRLVQDYDQQPLEHHHHHH | failed
MSQVSIIIPTLNEAASLGRTLRQLTLLNPPAKEVIVVDGGSEDETIAIAKQNFESFRQATGVQVIFCERRGRSVQMNYGALSATGDILCFLHADTWVPDDLVAVIEKTLAETKVSCGGFISLMTGSQTTRWGISLHNYLKTYYAPLLFKPHLFFQGLRLLFGDQVMFCRRNDFWDCGGFNEELPIMEDGDLCLKLVQKGRIALVNRIVQSSDRRVARWGSWKATAIYLYIGVLWGIGVDANYLKQFYQDIRLEHHHHHH | not failed
MKLLLLLIIALEISFTTIVSLNVALIILALIYLLGHRTRLRTLGWLLLIPLLPAIGLWSTQYINGSGDKTLMAWVLFTRIYAFVFTGATFTLTTDVLQLTDSLEQNWHLPAKFAYGVLAAYNLVPRIQHEVQVIRAAGLMRGQVLSFWSPQLYFKAILVSINWSQNLARAMRSHGFVEDAPRTHYRQIPLTKLDWTIVISGVLLLQVGAFVIPWR | failed
EPRVNTSALQKIAADMSNIIENLDTRELHFEGEEVDYDVSPSDPKIQEVYIPFSAIYNTQGFKEPNIQTYLSGCPIKAQVLEVERFTSTTRVPSINLYTIELTHGEFKWQVKRKFKHFQEFHRELLKYKAFIRIPIPTRRHTFRRQN | failed
MRIYLFLNKNYKIFILFLILILNSKLAYSQRLIRIGKEEMKNKNYIQAIETLSDAIKKYPKVQLGYYFLSIAYRENNQLTEAEGALLDGIAVGGEIDYILYYELGNIMFNRGEGYYPLAIKYYSNSIKSRPNYDSALLNRANAYVQQGKITSKEKEYQKAWDSYTMAIHDYSQFITLRSKTEKKDSILLIISYLRNEKINLEQLDKSLKGRTEHIVYAKEDKNQILKDSFKDNLETNSLIELEKLNWQEELYIDE | failed
MVNEYKRIVLLRGLECINKHYFSLFKSLLARDLNLERDNQEQYTTIQIANMMEEKFPADSGLGKLIEFCEEVPALRKRAEILKKERSEGETSLEKNGQEAGPATPTSTTSHMLASERGETSATQEETSTAQAGTSTAQAGTSTAQAGTSTA | not failed
RLEITPEAFLSDPTPAGVAARAAYELDPDIHVLPLADGTGEPLYLLHPSGGDVLCYMGLARELQGRPVYAVADPGLEDTPMPVDLDVVALTYGRVIMAHRAGLADTGKHGVREATAGYLIGGWSMGGTVAQRVAVQWRDQGIAVGALVLIDSNSPDRIRALTGMNDREVDAEFARRYLRSLQAFGAKAVDASAVTESDPASGVARALAGQGLALKDVERRISVFTRHLAGLAQLRVRPLVDVPTLLVIAEHQSPANSGVGMGVDDARDTEHLGWDDNLPTSTTEIMVPGHHYSVLSAPGLEIISEQIRELLA | failed
ELEPGAFSELYQRYRHCDAPICLYEQGRDSFEDEGRWRLILCATCGSHGTHRDCSSLRPNSKKWECNECLPA | not failed
MENGFFVKINYRIYTTFSEKHGIILSIISKKENPMAIYFGTYTKRESKGIYKANFDSETGQLSNLELVTEEPNPTYLAFDKAGHLYSVGAENGLGGIAAFNTDYTLLNHVVSEGAPLCYVAVDEARDLVYGSNFHKGQLLVYKRLADGSLELADVAQHEGSGPHENQASAHVHFSDLTPDKFLVTCDLGCDQVVTYKVSDQGKVEKIATYQAAPGSGPRHIVFHTVAKIAYLICELNSTIEVLIYDGWGQFEHLQTVSTLPEDHTGFNGTAAIRITKDGKFIYGSNRGNDSIAVYKTLADASLELVEIVPTNGKTPRDFTLSPDEKHLIVVHQDSDNATVFKRDAENGCLTELSHDFYVPEAVCVTFL | failed
MQSKRGRPRNIETQKAILSASYELLLESGFKAVTVDKIAERAKVSKATIYKWWPNKAAVVMDGFLSAAAARLPVPDTGSALNDILIHATSLANFLISREGTIINELVGEGQFDSKLAEEYRVRYFQPRRLQAKQLLEKGIKRGELKENLDIELSIDLIYGPIFYRLLVTGEKLDDSYVHDLVINAFEGIRLR | not failed
MTSSDLPVMLFAAGFGTRMGDLTRTRPKPLIEVAGRPLVDHTLDLARAVSPPRIVANLHYLAPLLAAHLAPQGVLLSHEQPDILDTGGGLRQALPLLAAETVFTANSDAIWSGPNPFALLAEAWEPARMDALLMCVPVGQAIGHAGHGDFSRDAQGRIERGPGLIYGGVQIVKTGGLGDFDMPAFSLNLLWNRIGAAGRLFALEYPGRWCDVGHPGGIALAEEMLRDVLEHHHHHH | not failed
MITIDALGQVCPIPVIRAKKALAELGEAGGVVTVLVDNDISRQNLQKMAEGMGYQAEYLEKDNGVIEVTIVAGEGCAVETSGTAADSGLVVAIGRNTMGEGSEELGRILLKGFIYSLRELTPPPARLLFFNSGAHLTSKDSNSIEDLKAMAAQGTIIQTCGTCLNYYGITEQLAVGQVANMYDIVTAMTEAKRLINI | failed
MRAPGALLARMSRLLLLLLLKVSASSALGVAPASRNETCLGESCAPTVIQRRGRDAWGPGNSARDVLRARAPREEQGAAFLAGPSWDLPAAPGRDPAAGRGAEASAAGPPGPPTRPPGPWRWKGARGQEPSETLGRGNPTALQLFLQISEEEEKGPRGAGISGRSQEQSVKTVPGASDLFYWPRRAGKLQGSHHKPLSKTANGLAGHEGWTIALPGRALAQNGSLGEGIHEPGGPRRGNSTNRRVRLKNPFYPLTQESYGAYAVMCLSVVIFGTGIIGNLAVMCIVCHNYYMRSISNSLLANLAFWDFLIIFFCLPLVIFHELTKKWLLEDFSCKIVPYIEVASLGVTTFTLCALCIDRFRAATNVQMYYEMIENCSSTTAKLAVIWVGALLLALPEVVLRQLSKEDLGFSGRAPAERCIIKISPDLPDTIYVLALTYDSARLWWYFGCYFCLPTLFTITCSLVTARKIRKAEKACTRGNKRQIQLESQMNCTVVALTILYGFCIIPENICNIVTAYMATGVSQQTMDLLNIISQFLLFFKSCVTPVLLFCLCKPFSRAFMECCCCCCEECIQKSSTVTSDDNDNEYTTELELSPFSTIRREMSTFASVGTHC | failed
MDRRHEIYEWFRINRFKVDMTATCLLILLFGPVYLVADRPWLFLLSCSLLLPLAWRRTRPAVAAGVVILVCLVQWAVAAEPVAGQIAVPLVIYATAAYGPAWASRTVLLAGLLGGVMLTTRLFSTTAESGILGLTIGALYTVLIWMLVLVSWTLGDLTRVRRLQLQALEDRTRRLEVEQMQERKLAAADERSHIAREMHDIVAHSLSVIITQADGARYAAAAKPELATEALATIAATGRDSLGEMRRLLGVLRSDDDSPTRPQPRLSDLDELLLGFRAATLQVTFEQSGAPRRALPAGAELTAYRIIQEALTNVMKHAGPRATAAVTLAWQARGLQVDVVDDGRGAAADPPTAGGGNGLRGMGERVSLYDGSLTAGPEQGGGFRVSAFIPYSEA | failed
